Assay results from the RNAGym collection of RNA variant scans (doi:10.1073/pnas.2313332121).
Variants at the floor of the assay were thinned out.

B1: TPR 5TU (parent)
chain: GGAUCUUCUCGAUCUAACAAAAAAGACAAAUCUGCCACAAAGCUUGAGAGCAUCUUCGGAUGCAGAGGCGGCAGCCUUCGGUGGCGCGAUAGCGCCAACGUUCUCAACUAUGACACGCAAAACGCGUGCUCCGUUGAAUGGAGUUUAUCAUG

Variants of: B1
Experiment: polymerase ribozyme fitness, log enrichment relative to wild type (log ratio); higher = more active; in vitro selection for triplet polymerase activity
How it was run: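 Libraries of mutants in each subunit of a heterodimeric triplet polymerase ribozyme were generated by PCR and transcribed. In triplicate, each went through one in vitro selection round: annealing with biotinylated primer, partner subunit and triplets; frozen incubation at −7 °C; gel excision of extended constructs; streptavidin-bead capture; RT-PCR. Fitness, taken from Illumina sequencing of input and output libraries, is the logarithm of a genotype's enrichment over wild-type enrichment, averaged across replicates with inverse-variance weights. The logarithm is base 2, and genotypes needed ≥10 input reads and ≥1 read per output to be kept.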

| Variant | polymerase ribozyme fitness (log ratio) |
| --- | --- |
| GGAUCUUCUUGAUCUAACAAAAAUGACAAAUCGGCCACAAGGCUUGAGAGCAUCUACGGAUGCAGAGGCGGCAGCCUUCGGUGGUGCGAUCGCGCCAACGUUCUCAACUAUGACACGCAAAACGCGUGCUCCGUUGAAUGGAGUUUAUCAUG | ≤ -4.2 |
| GGAUCUUCUUGAUCUAACAAAAGAGACAAAUCUGCCACAAAGCUUGAGAUCAACUUCGGAUGCAGAGGCGCCAGCCUUCGGUGGCGAGAUAGCGCCAACGUUCUCAACUAUGACACGCAUAACGCGUGCUCCGUUGAAUGGAGUUUAUCAUG | ≤ -4.2 |
| GGAUCUUCUUGAUGUAACAAAAAAGACAAAUCUGCCACAAAGCUUGAGAGCAUCUUCGGAUGCAGAGGCGGCAGCUUUCGGUGGCGCGAUAGCGCCAACGUUCUCGGUUAUGACACGCAAAACGCGUGCUCCGUUGAAUGGAGUUUAUCAUG | ≤ -4.2 |
| GGAUCUUCUUGAUCUAACAAAAAAGACAAAUCUGCCACAAGGCUUGAGAGCAUCUUCGGAUGCGCAGGCGGCAGCCUUCGGUGGCGCGAUCGCGCCAACGUUCUCAACUAUGACACGCAAAACGCGUGCUCCGUUGAAUGGAGUUUAUCAUG | ≤ -4.2 |
| GGAUCUUCUUGAUCUAACAAACAAGACAAAUCUGCAACAAAGCUUGAGCGCACCUUGAGAUGCAGAGGCGGCAGCCUUCGGUGGCUCGAUAGUGCCAACGUUCUCAACUAUGACACUCAAAACGCGUGCUCCGUUGAAUGGAGUUUAUCAUG | ≤ -4.2 |
| GGAUCUUCUUGAUCUAACAAAAAAGACAAAUCUGCCACAAUGCUUGAGAGCAUCUUCGGAUGCAGAGGCGGCAGCCUUCGGUGGCGCGAUACCGCCAACGUUCUCAACUAUGACACGCAAAACGCGUGCUCCGUUGAAGGGAGUUUAUCAUG | -4.06 |
| GGAUCUUCUUGAUCUAACAAAAAAGACAAAUCUGCCACAAAGCUUGAGAGCAUCUUCGGAUGCAGAGGCGGCAGCCUUCGGUGGCGCGAUUGCGCAAUCGUUCUCAACUAUGACACGCAAAACGCGUGCUCCGUUGAAUGGGGUUUAUCACG | ≤ -4.2 |
| GGAUCUUCUUGAUCUAACAAGGAAGACAAAUCUGCCACAGAGCUUGAGAGCAUCUUCGGAUGCAGAGGCGGCAGCCUUAGGUGGGGCGAUAGCGCCAACGUUCUCAACUAUGACACGCAAAACGCGUGCUCCGUUGAUUGGAGUUUAUCAUG | ≤ -4.2 |
| GGAUCUUCUUGAUCUAACUAAAUAGACAAAUCUGCCACAAAGCUUGAGAGCAUCUUUCGAUGCAGAGGCGGCAGUCUGCGGUGGCGCGAUAGCGUCAACGUUCUUAACUAUGACACGCAAAACGCGUGCUCCGUUGAAUGGAGUUUAUCAUG | ≤ -4.2 |
| GGAUCUUCUUGAUCUAACAAAUAAGACAAAUCUGCCACAAAGCUUGAGAGCAUCUUCGGAUGCAGAGGCGGCAGCCUUAGGUCGCGCGAUAGCGCCAACGUUCUCUACUAUGACACGCAAAACGCGUGCUCCGUUGAAUGGAGUUUAUCAUG | ≤ -4.2 |
| GGAUCUUCUUGAUCUAACCAAAAAGACAAAUCUGCCACAAAGCUGGAGAGCAUCUUCGGAUGCAGAGGCGGGAGCCUUCGGUGGCGCGACAGCGCCAACGUUCUCAACUAUGACACGCAAAACGCGUGCUCCGUGGAAUGGAGUUUAUCAUG | ≤ -4.2 |
| GGAUCUUCUUGAUCUGACAAAAAAGACAAAUCUGCCACAAAGCUUGAGAGCAUCUUCGGAUGCAGAGGCGGCAGCCUUCGGUGUCGCGAUAGCGCCAACGUUCUCAACUAUGACACGCAAAACGCGUGCUCCGUUGAAUUGAGUUUAUCAUG | ≤ -4.2 |
| GGAUCUUCUUGAUGUAACAAAAAAGACUAAUCUGCCACAAAGCUUGAGAGCAUCUUCCGACGCAGAGGCCGCAGCGUUCGGUGGCGCGAUAGCGCUAACGUUCUCAACUAUGACACGCAAAACGCGUGCUCCGUUGAGUUGAGUUUAUGAUG | ≤ -4.2 |
| GGAUCUUCUUGAUCUAACAAAAAAGACAUAUCUGCCACAAAGCUUGAGAGCAUCUUCGGAUGCAGAGGCGGCAGCCUUCGGUGGCGCGAUAACGCCAAAGUUCUCAACUAUGACACGCAAAACGCGUGCUCCGUUGAAUGGAGUCUAUCAUG | ≤ -4.2 |
| GGAUCUUCUUGAUGUAACAAAAAAGACAAAUCUGCCACCAAGCUUGAGAGCAUCUUCGGAUGCAGAGGCGGCAGCCUUCGGUGGCGCGAUGGCGGCAAUGUUCUGAACUAUGACACGCAAAACGCGUGCUCCGUUGGAUGGAGUUUAUCAUG | ≤ -4.2 |
| GGAUCUUCUUGAUCUAACAAAUAAGACAGAUCUGCCACAAAGCUUGAGAGCAGCUUCGGAUGCAGAGGCGGCAGACUUCGGUAGCGCGAUAGCGCCAACGUUCUCUACUAUGACACGCAAAACGCGUGCUCCGUUGAAUGGAGUUUAUCCUG | ≤ -4.2 |
| GGAUCUUCUUGAUCUAACAAAAAAGACAAAUCUGCCACAAUGCUUGAGAGCAUCUUCGGAUGCAGAGGCCGCAGCCUUCGGUUGCGCGAUAGCGCCAACGUUCUCAAUUAUGACACGCAAAACGCGUGCUCCGAUGAAUGGGGUUUAUCAUG | ≤ -4.2 |
| GGAUCUUCUUGAUCUAACGAAAAAGACAAAUCAGCCACAAAGCUUGAGAGCAUCUUCGGAUGCAGAGGCGGCAGCCUUUGGUGGCGCGAUAGUGCCAACGUUCUCAACUAUGACACGCAAAACGCGUGCUCCGUUGAAUGGAGUUUAUCAUG | ≤ -4.2 |
| GGAUCUUCUUGAUCUAACAAAAAAGACAAAUCUGCCCCAAAGCUUGAGAGCAUCUUCGGAUGCAGAGGCGGCAGUCUUCGGUGGCGCGAUAGCGGCAACGUUCUCAACUAUGACACGCAAAACGCGUGCUCCGUUGAAUGGAGUUUAUCAUG | ≤ -4.2 |

| Variant | polymerase ribozyme fitness (log ratio) |
| --- | --- |
| GGAUCUUCUUGAUCUAACAAAAAAGACAAAUCUGCCACAAAGCUUGAGAGCAUCUUCGGAUGCAGAGGCGGCAGCCUUCGGUGGCGCGAUAGCGCCAACGUUCUCAGCUAUGACACGCAAAACGCGUGCUCCGUUGAAUGGAGUUUAUCAUG | ≤ -4.2 |
| GGAUCUUCUUGAUCUAACAAAAAAGACAAAUCUGCCACAAAGCUUGUGAGCAUCUUCGCGUACAGAGGCGGCAGCCUUCGGUGGCGCGAUAGCGCCAACGUUCUCAACUUUGACACGCAAAACGCGUGCUCCGUUGAAUGCAGUAUAACAUG | ≤ -4.2 |
| GGAUCUUCUUGAUCUAGCAAAAAAGACAAAUCUGCCACAAAGCUUGAGAGCCUCUUCGGAUGCAGAGGCGGCAGUCUUCGGUGGCGCGAUAGCGCCAAUGUCCUCAACUAUGACACGCAAAACGCGAGCUCCGUAGAAUGGAGUUUAUCAUG | ≤ -4.2 |
| GGAUCUUCUUGAUCUAACAAACAAGACAAAUCUGCCACAAAGCUUAAGAACAUCUUCGGAUGCAGAGGCGGCAGCCUUGGGUGGUGCGAUAGCGCCAACGUUCUUAACUAUGACACGCAAAACGCGUGCUCCGUUGAAUGGAGUUUAUCAUG | ≤ -4.2 |
| GGAUCUUCUUGAUCUAUCAAAAAAGACAAAUCUGCCACAACGCUUGAGACCAUCUUCGGAUGCAGAGGCGGCAGCCUUCGGUGACGCGAUAGCGCCAACGUUCUCAACUAUGACACGCAAAACGCGUGCUCCGUUGAAUGGAGUUUAUCAUG | ≤ -4.2 |
| GGAUCUUCUUGAUGUAACAAAAAAGACAAAUCUUCCACAAAGCUUGAGAGCAUCUGCGGAUGCAGAGGCGGCAGCCUUCGGUGGCGCGAUAGCGCCAACGUUCUCAACUAUGACACGCAAAACGCGUGCUCCGUUGAAUGGAGUUUAUCAUG | ≤ -4.2 |
| GGAUCUUCUUGAUCUAACAAAAAAGACAAUUCUGCCACAAAGCUUGAGCGCAUCUUCGGAUGCAGAGGCGGCAGCCUUCGGUGGCGUGGUAGCGGCAACGUUCCCAACUAUGACAUGCUAAACGCGUGCUCCGUUCAAUGGAGUUUAUCAUG | ≤ -4.2 |
| GGAUCUUCUUGAUCUAACAAAAAAGUCAAAUCUGUCACAAAGCUUGAGAGCAUUUUCGGCUGCAGAGGCGGCAGCCUUCGGUGGCGCGAUAGCGACAAUGUUGUCAACUAUGACACGCAAAACGCGUGCUCCGUUGAAUGGUGUUUAUCAUG | ≤ -4.2 |
| GGAUCUUCUUGAUCUCACAAAAAAGACAAAUCUGCCACCAAGCUUGAGAUCAUCUACGGAUGCAGACGCGGCAGCCUUCGGUGGCGCGAUAGCCCCAACGUUCUCAAUUAUGACACGCAAAACGCGUGCUCCGUUGAAUGGAGUUUAUCAUG | ≤ -4.2 |
| GGAUCUUCUUGAUCUAACAAAAAAGACAAAUCUGCCACAAAGCUUGGGAGCAUCUUCGGAUGCAGAGGCGGCAGCCUUCGGUGGCGCGAUAGCUCCAACGUUCUCAACUAUGACACGCAAAACGCGUGCUCCGUUGAAUGGAGUUUGUCAUG | ≤ -4.2 |
| GGAUCUUCUUGAUCUGACAAAAAAGACAAAUCUGCCACAAAGGGUGAGAGCAUCUUCGGAUGCAGAGGCGGCAGCCAUCGGAGGCGCGAUAGCGCCAACGUUCUCAACUAUGACACGCACAACGCGUGCUCCGUUGAAUGGAGUUUAUCAUG | ≤ -4.2 |
| GGAUCUUCUUGAUCUAACAAAAAAGACAAAUCUGCCACAGAGCUUGAGAGCAUCUUCGGAUGCAGAGGCGGCAGCCUUCGGUGGCGCGAUAGCGCCAACGUUCUGAACUAUGACACGCAAAACGCGUGCUCCGUUGAAUGGAGUUUAUCAUG | ≤ -4.2 |
| GGAUCUUCUUGAUUUACCAAAAAAGACAAAUCUGCCACAAAGCUUGAGAGCAUCUACGGAUGCAGAGGCGGCAGCCUUCGGUGGCGCGAUAGCGCCAACGUUCUCAACUAUGACACGCAAAACGCGUGCUCCGAUGUAUGGAGUUUAUCACG | ≤ -4.2 |
| GGAUCUUCUUGAUCUAACAAAAUAGACAAAUCUGCCACAAAGCUUGAGAGCAUCUUCGGAUGCAGAGGCGGCAGCCUUCGGUGGCGCGAGAGCGCCAACGUUCUCAACUAUGACACGCAAAACGCGUGCUCCGUUGAAUGGAGUUUAUCAUG | ≤ -4.2 |
| GGAUCUUCUUGAUCUAACAAAAAAGACAAAUCUGCCACAAAGCUUGAGAGCAUCUUCGGAUGCCGAGGCGGCAGCCUUCGGUGGCGCGCUAGCGCCAACGUUCUCAACUAUGACACCCAAAACGCGUGCUCCGUUGCAUGGAGUUUAUCAUG | ≤ -4.2 |
| GGAUCUUCUUGAUCUCACAAAAUAGACAAAUCUGCCACAAAGCUUGAGAGCAUCUUCGGAUCCGGAGGCGGCAGCCUUCGGUCGCGCGAUAGCGCCAACGUGCUCAACUAUGAUACGCAAAACGCGGGCUCCGUUGAAUGGAGUUUAUCAUG | ≤ -4.2 |
| GGAUCUUCUUGAUCUAACAAAAAAGACAAAUCUGCCACAAAGCUUGAGAGCCUCUUCGGAUGCAGAGGCGGCAGCCUUCGGUGGCGUAAUAGCGCCAACGUUCUCAACUAUGACACGCAAAUGGCGUGCUCCGUUGAAUGGAGUUUAUCAUG | ≤ -4.2 |
| GGAUCUUCUUGAUCUAACAAAAAAGACAGAUCUGCCACAAAGCUUGAGAGCAUCUUCGAAUGCAGAGGCGGCAGCCUUCGAUGGCGCGAUAGCGCCGACGUUCUCAACUAUGACACGCAAAACGCGUGCUCCGUUGAAUGGAGUUUAUCAUG | ≤ -4.2 |
| GGAUCUUCUUGAUCUAACAAAAAUGACAAAUCUGUCACAAAGCUUGAGAGCAUCUUCGGAUGCAGAGGCGGCAGCCUUCGGUGGCGCGAUGGGGCCACCGUUCUCAACUAUGACACGUAAAACGCGUGCUCCGUUGAAUGGAGUUUAUCAUG | ≤ -4.2 |
